According to doi:10.1101/2023.02.08.527602 (bioRxiv, 2023):

Target: Soluble SorCS2 (extracellular domain of SorCS2) (UniProt Q96PQ0 51-1078)
Test: SPR

Sequence of Soluble SorCS2 (extracellular domain of SorCS2) (Q96PQ0 51-1078): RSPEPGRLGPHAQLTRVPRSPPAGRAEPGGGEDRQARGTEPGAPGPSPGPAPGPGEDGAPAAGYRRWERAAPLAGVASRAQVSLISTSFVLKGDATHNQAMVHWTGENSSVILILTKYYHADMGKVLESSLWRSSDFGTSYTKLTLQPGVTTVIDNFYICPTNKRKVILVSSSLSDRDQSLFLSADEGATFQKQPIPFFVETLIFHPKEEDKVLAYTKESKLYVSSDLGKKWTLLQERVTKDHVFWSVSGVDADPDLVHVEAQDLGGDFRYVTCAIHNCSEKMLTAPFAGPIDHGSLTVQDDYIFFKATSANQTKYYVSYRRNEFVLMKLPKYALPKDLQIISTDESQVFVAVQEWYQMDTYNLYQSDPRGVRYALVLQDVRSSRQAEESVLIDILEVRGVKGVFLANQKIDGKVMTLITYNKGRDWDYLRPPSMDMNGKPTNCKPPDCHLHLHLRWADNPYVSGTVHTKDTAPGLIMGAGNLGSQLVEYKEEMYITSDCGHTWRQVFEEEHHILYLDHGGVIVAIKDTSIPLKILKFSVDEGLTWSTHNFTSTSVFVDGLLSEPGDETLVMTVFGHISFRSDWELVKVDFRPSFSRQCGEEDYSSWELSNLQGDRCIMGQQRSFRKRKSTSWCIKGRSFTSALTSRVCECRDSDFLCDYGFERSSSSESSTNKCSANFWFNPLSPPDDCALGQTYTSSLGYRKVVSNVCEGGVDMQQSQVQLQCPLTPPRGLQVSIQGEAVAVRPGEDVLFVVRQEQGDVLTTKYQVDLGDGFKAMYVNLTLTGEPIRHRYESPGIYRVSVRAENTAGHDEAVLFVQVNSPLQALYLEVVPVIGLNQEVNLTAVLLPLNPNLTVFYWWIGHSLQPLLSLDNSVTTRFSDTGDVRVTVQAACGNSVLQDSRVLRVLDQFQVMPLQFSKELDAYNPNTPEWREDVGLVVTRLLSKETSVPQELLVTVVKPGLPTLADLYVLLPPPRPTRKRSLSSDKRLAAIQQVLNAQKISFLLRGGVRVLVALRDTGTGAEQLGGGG

- Kd: ~3 nM
B1: human progranulin (hPGRN) used in SPR (ligand, UniProt P28799 18-593, looked up)
chain: TRCPDGQFCPVACCLDPGGASYSCCRPLLDKWPTTLSRHLGGPCQVDAHCSAGHSCIFTVSGTSSCCPFPEAVACGDGHHCCPRGFHCSADGRSCFQRSGNNSVGAIQCPDSQFECPDFSTCCVMVDGSWGCCPMPQASCCEDRVHCCPHGAFCDLVHTRCITPTGTHPLAKKLPAQRTNRAVALSSSVMCPDARSRCPDGSTCCELPSGKYGCCPMPNATCCSDHLHCCPQDTVCDLIQSKCLSKENATTDLLTKLPAHTVGDVKCDMEVSCPDGYTCCRLQSGAWGCCPFTQAVCCEDHIHCCPAGFTCDTQKGTCEQGPHQVPWMEKAPAHLSLPDPQALKRDVPCDNVSSCPSSDTCCQLTSGEWGCCPIPEAVCCSDHQHCCPQGYTCVAEGQCQRGSEIVAGLEKMPARRASLSHPRDIGCDQHTSCPVGQTCCPSLGGSWACCQLPHAVCCEDRQHCCPAGYTCNVKARSCEKEVVSAQPATFLARSPHVGVKDVECGEGHFCHDNQTCCRDNRQGWACCPYRQGVCCADRRHCCPAGFRCAARGTKCLRREAPRWDAPLRDPALRQLL
